{
  "source": "paper PMC6365974",
  "about": "“Characterization of an Aldehyde Oxidoreductase From the Mesophilic Bacterium Aromatoleum aromaticum EbN1, a Member of a New Subfamily of Tungsten-Containing Enzymes” (Frontiers in Microbiology, 2019)",
  "key": {"AORAa": {"biological_target": "T1, AORAa (Aromatoleum aromaticum, UniProt Q5P143)", "T1 construct": "gene aorB; native heterohexamer α2β2γ2, ca. 280 kDa (subunits 66, 46, 17 kDa), purified from phenylalanine-grown Δpdh cells, no tag; with Iron-sulfur protein, aldehyde oxidoreductase small subunit AorA", "assay": "flavin fluorescence of supernatant of heat-denatured enzyme, phosphodiesterase treatment", "assay_type": "binding", "settings": "co-purified cofactor; site AorC (predicted)"}, "[1]": {"test_system": "c1ccc(C[n+]2ccc(-c3cc[n+](Cc4ccccc4)cc3)cc2)cc1", "assay": "purified protein", "settings": "artificial electron acceptor, phenylacetaldehyde as co-substrate, 100 mM Tris-HCl pH 8.0, 28°C, probably reacts at an Fe-S cluster"}, "purified protein [2]": {"substrate": "CC=O", "assay": "purified protein", "settings": "electron acceptor benzyl viologen, 100 mM Tris-HCl pH 8.0, 28°C, site AorB (W-cofactor, predicted)"}, "purified protein [3]": {"substrate": "O=CCc1ccccc1", "assay": "purified protein", "settings": "electron acceptor benzyl viologen, 100 mM Tris-HCl pH 8.0, 28°C, site AorB (W-cofactor, predicted)"}, "purified protein [4]": {"substrate": "O=Cc1ccccc1", "assay": "purified protein", "settings": "electron acceptor benzyl viologen, 100 mM Tris-HCl pH 8.0, 28°C, site AorB (W-cofactor, predicted)"}, "purified protein [5]": {"substrate": "NC(=O)c1ccc[n+]([C@@H]2O[C@H](COP(=O)(O)OP(=O)(O)OC[C@H]3O[C@@H](n4cnc5c(N)ncnc54)[C@H](O)[C@@H]3O)[C@@H](O)[C@H]2O)c1", "assay": "purified protein", "assay_type": "biochemical, Aromatoleum aromaticum", "settings": "electron acceptor, phenylacetaldehyde as co-substrate, 100 mM Tris-HCl pH 8.0, 28°C, site AorC (FAD, predicted)"}, "[6]": {"biological_target": "T2, AorB, large W-cofactor binding subunit of aldehyde oxidoreductase AORAa from Aromatoleum aromaticum EbN1 (Aromatoleum aromaticum EbN1, UniProt Q5P143 1-616)", "T2 construct": "AorB, large subunit (66 kDa on SDS-PAGE) of the tungsten-containing aldehyde oxidoreductase of Aromatoleum aromaticum EbN1; also called large subunit; aorB gene product; source: purified from A. aromaticum EbN1 strain SR7Δpdh as part of AORAa (DEAE-sepharose, hydroxyapatite, Superdex 200)", "T2 sequence (looked up)": "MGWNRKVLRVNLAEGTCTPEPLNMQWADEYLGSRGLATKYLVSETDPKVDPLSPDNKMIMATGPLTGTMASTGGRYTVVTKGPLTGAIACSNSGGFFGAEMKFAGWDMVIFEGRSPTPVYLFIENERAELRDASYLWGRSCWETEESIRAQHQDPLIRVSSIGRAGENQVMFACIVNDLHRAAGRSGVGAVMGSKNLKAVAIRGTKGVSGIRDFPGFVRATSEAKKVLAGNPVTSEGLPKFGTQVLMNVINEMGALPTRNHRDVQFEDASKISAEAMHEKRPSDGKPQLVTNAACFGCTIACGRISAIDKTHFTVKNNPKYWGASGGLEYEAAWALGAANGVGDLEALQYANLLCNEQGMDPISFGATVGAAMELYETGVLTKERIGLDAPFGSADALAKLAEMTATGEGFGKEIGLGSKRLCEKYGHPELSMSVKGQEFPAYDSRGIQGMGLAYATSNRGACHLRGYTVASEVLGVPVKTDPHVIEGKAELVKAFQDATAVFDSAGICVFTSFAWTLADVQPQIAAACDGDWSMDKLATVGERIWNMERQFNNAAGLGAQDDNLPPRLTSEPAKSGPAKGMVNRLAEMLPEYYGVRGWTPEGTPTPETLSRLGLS", "assay": "co-purification by enzyme activity (DEAE-sepharose, hydroxyapatite, Superdex 200 gel filtration); endogenous enzyme purified from cell extract under anoxic conditions, followed by AOR activity; subunits separated by SDS-PAGE and identified by MALDI-TOF of tryptic fragments", "settings": "partners not purified"}},
  "data": [
    {"molecule": "Cc1cc2nc3c(=O)[nH]c(=O)nc-3n(C[C@H](O)[C@H](O)[C@H](O)COP(=O)(O)OP(=O)(O)OC[C@H]3O[C@@H](n4cnc5c(N)ncnc54)[C@H](O)[C@@H]3O)c2cc1C", "note": "[FAD]", "values": [
      {"measurement": "flavin fluorescence of supernatant of heat-denatured enzyme, phosphodiesterase t", "setting": "AORAa", "value": "The presence of FAD in AORAa was confirmed by fluorescence spectroscopy"}
    ]},
    {"molecule": "AORAa (Aromatoleum aromaticum EbN1)", "values": [
      {"measurement": "Km", "setting": "[1]", "value": 23, "unit": "µM"},
      {"measurement": "Vmax", "setting": "[1]", "value": 21.2, "unit": "µmol/min/mg"},
      {"measurement": "kcat", "setting": "[1]", "value": 91, "unit": "s⁻¹"},
      {"measurement": "kcat/Km", "setting": "[1]", "value": "3.96e+06", "unit": "M⁻¹ s⁻¹"}
    ]},
    {"molecule": "AORAa (Aromatoleum aromaticum EbN1) (protein) MGWNRKVLRVNLAEGTCTPEPLNMQWADEYLGSRGLATKYLVSETDPKVDPLSPDNKMIMATGPLTGTMASTGGRYTVVTKGPLTGAIACSNSGGFFGAEMKFAGWDMVIFEGRSPTPVYLFIENERAELRDASYLWGRSCWETEESIRAQHQDPLIRVSSIGRAGENQVMFACIVNDLHRAAGRSGVGAVMGSKNLKAVAIRGTKGVSGIRDFPGFVRATSEAKKVLAGNPVTSEGLPKFGTQVLMNVINEMGALPTRNHRDVQFEDASKISAEAMHEKRPSDGKPQLVTNAACFGCTIACGRISAIDKTHFTVKNNPKYWGASGGLEYEAAWALGAANGVGDLEALQYANLLCNEQGMDPISFGATVGAAMELYETGVLTKERIGLDAPFGSADALAKLAEMTATGEGFGKEIGLGSKRLCEKYGHPELSMSVKGQEFPAYDSRGIQGMGLAYATSNRGACHLRGYTVASEVLGVPVKTDPHVIEGKAELVKAFQDATAVFDSAGICVFTSFAWTLADVQPQIAAACDGDWSMDKLATVGERIWNMERQFNNAAGLGAQDDNLPPRLTSEPAKSGPAKGMVNRLAEMLPEYYGVRGWTPEGTPTPETLSRLGLS", "values": [
      {"measurement": "Km", "setting": "purified protein [2]", "value": 141, "unit": "µM"},
      {"measurement": "Vmax", "setting": "purified protein [2]", "value": 23.8, "unit": "µmol/min/mg"},
      {"measurement": "kcat", "setting": "purified protein [2]", "value": 103, "unit": "s⁻¹"},
      {"measurement": "kcat/Km", "setting": "purified protein [2]", "value": 730000, "unit": "M⁻¹ s⁻¹"},
      {"measurement": "Km", "setting": "purified protein [3]", "value": 82, "unit": "µM"},
      {"measurement": "Vmax", "setting": "purified protein [3]", "value": 18.9, "unit": "µmol/min/mg"},
      {"measurement": "kcat", "setting": "purified protein [3]", "value": 81, "unit": "s⁻¹"},
      {"measurement": "kcat/Km", "setting": "purified protein [3]", "value": 990000, "unit": "M⁻¹ s⁻¹"},
      {"measurement": "Km", "setting": "purified protein [4]", "value": 67, "unit": "µM"},
      {"measurement": "Vmax", "setting": "purified protein [4]", "value": 21.4, "unit": "µmol/min/mg"},
      {"measurement": "kcat", "setting": "purified protein [4]", "value": 92, "unit": "s⁻¹"},
      {"measurement": "kcat/Km", "setting": "purified protein [4]", "value": "1.38e+06", "unit": "M⁻¹ s⁻¹"},
      {"measurement": "Km", "setting": "purified protein [5]", "value": 63, "unit": "µM"},
      {"measurement": "Vmax", "setting": "purified protein [5]", "value": 12.5, "unit": "µmol/min/mg"},
      {"measurement": "kcat", "setting": "purified protein [5]", "value": 54, "unit": "s⁻¹"},
      {"measurement": "kcat/Km", "setting": "purified protein [5]", "value": 860000, "unit": "M⁻¹ s⁻¹"}
    ]},
    {"molecule": "AorA, small subunit of aldehyde oxidoreductase AORAa from Aromatoleum aromaticum EbN1 (natural protein, UniProt Q5P144 1-158, looked up, AorA, small subunit (17 kDa on SDS-PAGE) of the tungsten-containing aldehyde oxidoreductase of Aromatoleum aromaticum EbN1; predicted to contain four [Fe4S4] clusters; also called electron transfer subunit; aorA gene product; source: purified from A. aromaticum EbN1 strain SR7Δpdh as part of AORAa (DEAE-sepharose, hydroxyapatite, Superdex 200)) MWKSLHIDPAKCTGCLQCEMACSYEHTGVINPSKSRIKVFSFEHEGRKVPYTCTQCTEAWCLHSCPVDAIRLDLTTGAKMVFEDTCVGCKVCTIACPFGTINYNQDTGKVQKCDLCEGDPACAKACPTAAITYIDADWTGLARMQAWAAKANTPASAA", "values": [
      {"measurement": "binding result", "setting": "[6]", "value": "binds"}
    ]},
    {"molecule": "AorC, medium FAD-containing subunit of aldehyde oxidoreductase AORAa from Aromatoleum aromaticum EbN1 (natural protein, UniProt Q5P142 1-424, looked up, AorC, medium-sized subunit (46 kDa on SDS-PAGE) of the tungsten-containing aldehyde oxidoreductase of Aromatoleum aromaticum EbN1; predicted FAD-containing; also called medium subunit; medium-sized subunit; source: purified from A. aromaticum EbN1 strain SR7Δpdh as part of AORAa (DEAE-sepharose, hydroxyapatite, Superdex 200)) MKHVILGNGPAGVIAAETLRRAAPTDDILLFGSEDAPPYSRMAIPYLLEGNIDESGTWLRKSPGHFDRLRIHEMRGRAVSLDSERRRILFDDGHFESWDRLLIATGSHPVRPPIPGIDLPEVQTCWTLEDARAIARFATPGARVLQLGAGFIGCIIMEALAARGVELTVVEMGDRMVPRMMTPTAGGMIRKWVEDQGVRVVTNAGVSRIDCRASNDAPLDVTLSTGEVVVADLVIVAAGVAPNIAFLEATPVHVAKGVLVDDRLQTSVPGIFAAGDVAEAPDLFTGAHLVAAIQPNAADQARVAALNMAGHEARLKGVLAINVLDTLGLISSSFGQWWGEERERGGAGVEHVDEAAYRYLSLQFKDDVLIGATSIGLTEHVGALRGLIHGRVRLGEWKERLLHSPLQFVDAYIARSQQPMALVR", "values": [
      {"measurement": "binding result", "setting": "[6]", "value": "binds"}
    ]}
  ]
}
